Laboratory results taken from publication PMC11310373, “Development of a microbial dewaxing agent using three spore forming bacteria” (Bioresources and Bioprocessing, 2024).
Substitutions are numbered along the chain they refer to. Names and notes keep the numbering of the source.

B1: LadA (alkane monooxygenase) (Geobacillus thermodenitrificans NG80-2) (protein)
chain: MTKKIHINAFEMNCVGHIAHGLWRHPENQRHRYTDLNYWTELAQLLEKGKFDALFLADVVGIYDVYRQSRDTAVREAVQIPVNDPLMLISAMAYVTKHLAFAVTFSTTYEHPYGHARRMSTLDHLTKGRIAWNVVTSHLPSADKNFGIKKILEHDERYDLADEYLEVCYKLWEGSWEDNAVIRDIENNIYTDPSKVHEINHSGKYFEVPGPHLCEPSPQRTPVIYQAGMSERGREFAAKHAECVFLGGKDVETLKFFVDDIRKRAKKYGRNPDHIKMFAGICVIVGKTHDEAMEKLNSFQKYWSLEGHLAHYGGGTGYDLSKYSSNDYIGSISVGEIINNMSKLDGKWFKLSVGTPKKVADEMQYLVEEAGIDGFNLVQYVSPGTFVDFIELVVPELQKRGLYRVDYEEGTYREKLFGKGNYRLPDDHIAARYRNISSNV
B2: LadA (alkane monooxygenase) (Geobacillus thermodenitrificans NG80-2; F10L) (protein)
chain: B1 chain with F10L
B3: LadA (alkane monooxygenase) (Geobacillus thermodenitrificans NG80-2; F10L/N133R) (protein)
chain: B1 chain with F10L, N133R

substrate: Cc1cc2nc3c(=O)[nH]c(=O)nc-3n(C[C@H](O)[C@H](O)[C@H](O)COP(=O)(O)O)c2cc1C; test: purified protein; type: biochemical, Geobacillus thermodenitrificans; settings: FMN added to octadecane/NADPH mixture, FMNH2 consumption followed at A455, pH 8.0, 60 °C, varied: cofactor

Protein | Km
B1 | 3.3 ± 0.2 µM
B2 | 3.1 ± 0.3 µM
B3 | 3.9 ± 0.3 µM

substrate: CCCCCCCCCCCCCCCCCC; test: NADPH consumption, Lineweaver-Burk; type: biochemical, Geobacillus thermodenitrificans; settings: 10 mM NADPH, 0.015% Triton X-100, 50 mM Tris-HCl pH 8.0, 60 °C
From the text: NADPH consumption, Lineweaver-Burk on LadA (alkane monooxygenase)

Protein | Km | kcat | kcat/Km
B1 | 10360 ± 1600 µM | 0.0297 ± 0.0033 s⁻¹ | 2.83 M⁻¹ s⁻¹
B2 | 6980 ± 500 µM | 0.036 ± 0.005 s⁻¹ | 5.17 M⁻¹ s⁻¹
B3 | 2040 ± 200 µM | 0.0737 ± 0.01 s⁻¹ | 36.2 M⁻¹ s⁻¹
